In patent publication US9625458B2, “Biosensor” (priority 2002, dated 2017):
Residue numbers refer to the chain shown, from its start. In names and notes the source's numbering stands.

B1: phosphate BP A225C JPW4039 (conjugate, UniProt P0AG82 26-346, looked up, variant A225C)
Phosphate-binding protein PstS: EASLTGAGATFPAPVYAKWADTYQKETGNKVNYQGIGSSGGVKQIIANTVDFGASDAPLSDEKLAQEGLFQFPTVIGGVVLAVNIPGLKSGELVLDGKTLGDIYLGKIKKWDDEAIAKLNPGLKLPSQNIAVVRRADGSGTSFVFTSYLAKVNEEWKNNVGTGSTVKWPIGLGGKGNDGIAAFVQRLPGAIGYVEYAYAKQNNLAYTKLISADGKPVSPTEENFCNAAKGADWSKTFAQDLTNQKGEDAWPITSTTFILIHKDQKKPEQGTEVLKFFDWAYKTGAKQANDLDYASLPDSVVEQVRAAWKTNIKDSSGKPLY
modifications: JPW4039 label
B2: phosphate BP S39C Acrylodan (conjugate, UniProt P0AG82 26-346, looked up, variant S39C)
Phosphate-binding protein PstS: B1 Phosphate-binding protein PstS with S39C, C225A
modifications: acrylodan conjugate
B3: phosphate BP A225C Acrylodan (conjugate, UniProt P0AG82 26-346, looked up, variant A225C)
Phosphate-binding protein PstS: B1 Phosphate-binding protein PstS
modifications: acrylodan conjugate
B4: phosphate BP A225C JPW4045 (conjugate, UniProt P0AG82 26-346, looked up, variant A225C)
Phosphate-binding protein PstS: B1 Phosphate-binding protein PstS
modifications: JPW4045 label
B5: phosphate BP S39C NBD (conjugate, UniProt P0AG82 26-346, looked up, variant S39C)
Phosphate-binding protein PstS: B1 Phosphate-binding protein PstS with S39C, C225A
modifications: NBD dye conjugate
B6: phosphate BP S39C JPW4042 (conjugate, UniProt P0AG82 26-346, looked up, variant S39C)
Phosphate-binding protein PstS: B1 Phosphate-binding protein PstS with S39C, C225A
modifications: JPW4042 dye label
B7: phosphate BP S39C Fluorescein (conjugate, UniProt P0AG82 26-346, looked up, variant S39C)
Phosphate-binding protein PstS: B1 Phosphate-binding protein PstS with S39C, C225A
modifications: fluorescein conjugate
B8: phosphate BP N226C JPW4039 (conjugate, UniProt P0AG82 26-346, looked up, variant N226C)
Phosphate-binding protein PstS: B1 Phosphate-binding protein PstS with C225A, N226C
modifications: JPW4039 dye conjugate
B9: phosphate BP A225C JPW4042 (conjugate, UniProt P0AG82 26-346, looked up, variant A225C)
Phosphate-binding protein PstS: B1 Phosphate-binding protein PstS
modifications: JPW4042 dye conjugate
B10: phosphate BP S39C JPW4045 (conjugate, UniProt P0AG82 26-346, looked up, variant S39C)
Phosphate-binding protein PstS: B1 Phosphate-binding protein PstS with S39C, C225A
modifications: JPW4045 dye conjugate
B11: phosphate BP A225C NBD (conjugate, UniProt P0AG82 26-346, looked up, variant A225C)
Phosphate-binding protein PstS: B1 Phosphate-binding protein PstS
modifications: NBD conjugate
B12: phosphate BP N223C Fluorescein (conjugate, UniProt P0AG82 26-346, looked up, variant N223C)
Phosphate-binding protein PstS: B1 Phosphate-binding protein PstS with N223C, C225A
modifications: fluorescein conjugate
B13: phosphate BP N226C JPW4045 (conjugate, UniProt P0AG82 26-346, looked up, variant N226C)
Phosphate-binding protein PstS: B1 Phosphate-binding protein PstS with C225A, N226C
modifications: JPW4045 dye conjugate
B14: phosphate BP N226C JPW4042 (conjugate, UniProt P0AG82 26-346, looked up, variant N226C)
Phosphate-binding protein PstS: B1 Phosphate-binding protein PstS with C225A, N226C
modifications: JPW4042 dye conjugate
B15: phosphate BP A225C Fluorescein (conjugate, UniProt P0AG82 26-346, looked up, variant A225C)
Phosphate-binding protein PstS: B1 Phosphate-binding protein PstS
modifications: fluorescein label
B16: phosphate BP S39C JPW4039 (conjugate, UniProt P0AG82 26-346, looked up, variant S39C)
Phosphate-binding protein PstS: B1 Phosphate-binding protein PstS with S39C, C225A
modifications: JPW4039 dye conjugate
B17: ribose BP A234C JPW4039 (conjugate, UniProt P02925 26-296, looked up, variant A234C)
Ribose import binding protein …: KDTIALVVSTLNNPFFVSLKDGAQKEADKLGYNLVVLDSQNNPAKELANVQDLTVRGTKILLINPTDSDAVGNAVKMANQANIPVITLDRQATKGEVVSHIASDNVLGGKIAGDYIAKKAGEGAKVIELQGIAGTSAARERGEGFQQAVAAHKFNVLASQPADFDRIKGLNVMQNLLTAHPDVQAVFAQNDEMALGALRALQTAGKSDVMVVGFDGTPDGEKAVNDGKLAATICQLPDQIGAKGVETADKVLKGEKVQAKYPVDLKLVVKQ
modifications: JPW4039 dye conjugate
B18: ribose BP D165C JPW4039 (conjugate, UniProt P02925 26-296, looked up, variant D165C)
Ribose import binding protein …: B17 Ribose import binding protein … with D165C, C234A
modifications: JPW4039 dye conjugate
B19: ribose BP D165C Acrylodan (conjugate, UniProt P02925 26-296, looked up, variant D165C)
Ribose import binding protein …: B17 Ribose import binding protein … with D165C, C234A
modifications: acrylodan conjugate
B20: ribose BP E192C Fluorescein (conjugate, UniProt P02925 26-296, looked up, variant E192C)
Ribose import binding protein …: B17 Ribose import binding protein … with E192C, C234A
modifications: fluorescein label
B21: ribose BP A234C Acrylodan (conjugate, UniProt P02925 26-296, looked up, variant A234C)
Ribose import binding protein …: B17 Ribose import binding protein …
modifications: acrylodan label
B22: ribose BP L236C JPW4042 (conjugate, UniProt P02925 26-296, looked up, variant L236C)
Ribose import binding protein …: B17 Ribose import binding protein … with C234A, L236C
modifications: JPW4042 dye conjugate
B23: ribose BP L236C JPW4045 (conjugate, UniProt P02925 26-296, looked up, variant L236C)
Ribose import binding protein …: B17 Ribose import binding protein … with C234A, L236C
modifications: JPW4045 dye label
B24: ribose BP E192C JPW4039 (conjugate, UniProt P02925 26-296, looked up, variant E192C)
Ribose import binding protein …: B17 Ribose import binding protein … with E192C, C234A
modifications: JPW4039 dye label
B25: ribose BP E192C NBD (conjugate, UniProt P02925 26-296, looked up, variant E192C)
Ribose import binding protein …: B17 Ribose import binding protein … with E192C, C234A
modifications: NBD dye conjugate
B26: ribose BP L236C JPW4039 (conjugate, UniProt P02925 26-296, looked up, variant L236C)
Ribose import binding protein …: B17 Ribose import binding protein … with C234A, L236C
modifications: JPW4039 dye conjugate
B27: ribose BP L236C Fluorescein (conjugate, UniProt P02925 26-296, looked up, variant L236C)
Ribose import binding protein …: B17 Ribose import binding protein … with C234A, L236C
modifications: fluorescein conjugate
B28: ribose BP A234C JPW4042 (conjugate, UniProt P02925 26-296, looked up, variant A234C)
Ribose import binding protein …: B17 Ribose import binding protein …
modifications: JPW4042 dye conjugate
B29: ribose BP D165C JPW4042 (conjugate, UniProt P02925 26-296, looked up, variant D165C)
Ribose import binding protein …: B17 Ribose import binding protein … with D165C, C234A
modifications: JPW4042 dye conjugate
B30: ribose BP A234C NBD (conjugate, UniProt P02925 26-296, looked up, variant A234C)
Ribose import binding protein …: B17 Ribose import binding protein …
modifications: NBD conjugate
B31: ribose BP D165C JPW4045 (conjugate, UniProt P02925 26-296, looked up, variant D165C)
Ribose import binding protein …: B17 Ribose import binding protein … with D165C, C234A
modifications: JPW4045 label

Experiment: Fluorescence emission spectra without and with saturating ligand (wavelength shift, ΔIstd, ΔRmax)
Design: key to ΔIstd: intensity change at λstd normalized to average intensity; key to ΔRmax: ratio change of two emission band areas, unbound vs saturated
Conditions: standard intensity change, unbound vs ligand-saturated
Experimental: Fluorimetry. All measurements were conducted with an SLM Aminco-Bowman series 2 fluorimeter, with sample stirring at 25° C. Fluorescence emission spectra were acquired with excitation and emission slit widths of 4 and 8 nm, respectively. Photomultiplier tube potential was maintained between 400 and 800 volts. Protein concentrations were in the range of 50 to 1000 nM. Fluorophore-specific excitation was at the following approximate wavelengths: tryptophan, 290 nm; acrylodan, 390 nm; fluorescein, 485 nm; pyrene, 340 nm; NBD and NBDE, 490 nm; JPW4039, 485 nm; JPW4042, 470 nm; JPW4045, 470 nm.
Assessment of fluorescent biosensor function. Fluorescence emission spectra of bPBP-fluorophore conjugates were recorded in the absence and presence of saturating ligand concentrations. Spectral changes were characterized by four parameters: wavelength shift (the difference between the wavelengths of emission maximum in the unbound and ligand-saturated states), direction of intensity change (increase or decrease in intensity at the wavelengths of maximum emission in the two states), standard intensity change (ΔIstd), and standard ratiometric change (ΔR). ΔIstd is defined as the normalized intensity change relative to the average intensity, determined at the wavelength mid-point between the two emission maxima:
[formula] where λstd=(λmax, unbound+λmax, saturated)/2 and I1, I2 are the fluorescence intensities at λstd of each spectrum respectively (FIG. 4A). ΔR is defined in terms of two emission bands, A1 ([λ1, λ2]) and A2 ([λ3, λ4]) (FIG. 4B):
[formula] where ^∘A1, […] the areas in the absence of ligand, and ^∞A1, ^∞A2 the areas in the presence of saturating ligand. A computer program was used to enumerate ΔR for all possible pairs of wavelength bands in the two spectra, to identify the optimal sensing condition, defined as the maximum value of ΔR. Adjustable parameters of the algorithm, and their values used for ΔRmax quantities reported here, are: step size (2 nm), step width (10 nm), minimum integration area limit (fraction of total: 0.1), and maximum integration area limit (fraction of total: 1).
B1 gave a ΔIstd of 0.36.
With B2 the ΔIstd was 0.10.
Molecule B3 has a ΔIstd of 0.08.
In the case of B4, the ΔIstd is reported as 0.02.
For B5, the ΔIstd was 0.18.
For B6, the ΔIstd was 0.01.
Molecule B7 has a ΔIstd of 0.03.
Work on B8 yielded a ΔIstd of 0.26.
For B9, the ΔIstd was 0.30.
B10 gave a ΔIstd of 0.18.
Molecule B11 has a ΔIstd of 0.81.
In the case of B12, the ΔIstd is reported as 0.06.
B13 showed a ΔIstd of 0.53.
For B14, the ΔIstd was 0.29.
With B15 the ΔIstd was 0.01.
Work on B16 yielded a ΔIstd of 0.36.
B17 showed a ΔIstd of 0.37.
Work on B18 yielded a ΔIstd of 0.13.
With B19 the ΔIstd was 0.00.
B20 showed a ΔIstd of 0.12.
Work on B21 yielded a ΔIstd of 0.01.
With B22 the ΔIstd was 0.55.
Work on B23 yielded a ΔIstd of 0.25.
Molecule B24 has a ΔIstd of 0.44.
In the case of B25, the ΔIstd is reported as 0.00.
Work on B26 yielded a ΔIstd of 0.08.
Molecule B27 has a ΔIstd of 0.02.
Molecule B28 has a ΔIstd of 0.06.
With B29 the ΔIstd was 0.06.
For B30, the ΔIstd was 0.28.
For B31, the ΔIstd was 0.04.

Same assay, conditions: standard ratiometric change, unbound vs ligand-saturated
Work on B1 yielded a ΔRmax of 2.86.
For B2, the ΔRmax was 0.80.
B3 showed a ΔRmax of 1.95.
Work on B4 yielded a ΔRmax of 0.82.
Work on B5 yielded a ΔRmax of 0.57.
In the case of B6, the ΔRmax is reported as 0.15.
Work on B7 yielded a ΔRmax of 0.21.
Work on B8 yielded a ΔRmax of 2.94.
B9 showed a ΔRmax of 1.32.
Molecule B10 has a ΔRmax of 4.13.
With B11 the ΔRmax was 1.21.
B12 showed a ΔRmax of 0.01.
For B13, the ΔRmax was 3.83.
With B14 the ΔRmax was 2.05.
Work on B15 yielded a ΔRmax of 0.97.
In the case of B16, the ΔRmax is reported as 3.15.
For B17, the ΔRmax was 1.29.
B18 gave a ΔRmax of 0.36.
B19 showed a ΔRmax of 0.37.
For B20, the ΔRmax was 1.31.
With B21 the ΔRmax was 1.18.
With B22 the ΔRmax was 3.58.
Molecule B23 has a ΔRmax of 1.70.
B24 showed a ΔRmax of 0.34.
For B25, the ΔRmax was 1.67.
Molecule B26 has a ΔRmax of 0.29.
B27 showed a ΔRmax of 0.29.
With B28 the ΔRmax was 0.99.
Work on B29 yielded a ΔRmax of 0.27.
B30 showed a ΔRmax of 1.63.
In the case of B31, the ΔRmax is reported as 0.77.
